These results are taken from publication PMC6446905 (Science (New York, N.Y.), 2018).

Common to all, as to assay: cryo-EM structure
Test [1] has as its target T1, TAF3 (human (endogenous in HeLa), UniProt Q5VWG9 1-929).
T1 sequence (looked up): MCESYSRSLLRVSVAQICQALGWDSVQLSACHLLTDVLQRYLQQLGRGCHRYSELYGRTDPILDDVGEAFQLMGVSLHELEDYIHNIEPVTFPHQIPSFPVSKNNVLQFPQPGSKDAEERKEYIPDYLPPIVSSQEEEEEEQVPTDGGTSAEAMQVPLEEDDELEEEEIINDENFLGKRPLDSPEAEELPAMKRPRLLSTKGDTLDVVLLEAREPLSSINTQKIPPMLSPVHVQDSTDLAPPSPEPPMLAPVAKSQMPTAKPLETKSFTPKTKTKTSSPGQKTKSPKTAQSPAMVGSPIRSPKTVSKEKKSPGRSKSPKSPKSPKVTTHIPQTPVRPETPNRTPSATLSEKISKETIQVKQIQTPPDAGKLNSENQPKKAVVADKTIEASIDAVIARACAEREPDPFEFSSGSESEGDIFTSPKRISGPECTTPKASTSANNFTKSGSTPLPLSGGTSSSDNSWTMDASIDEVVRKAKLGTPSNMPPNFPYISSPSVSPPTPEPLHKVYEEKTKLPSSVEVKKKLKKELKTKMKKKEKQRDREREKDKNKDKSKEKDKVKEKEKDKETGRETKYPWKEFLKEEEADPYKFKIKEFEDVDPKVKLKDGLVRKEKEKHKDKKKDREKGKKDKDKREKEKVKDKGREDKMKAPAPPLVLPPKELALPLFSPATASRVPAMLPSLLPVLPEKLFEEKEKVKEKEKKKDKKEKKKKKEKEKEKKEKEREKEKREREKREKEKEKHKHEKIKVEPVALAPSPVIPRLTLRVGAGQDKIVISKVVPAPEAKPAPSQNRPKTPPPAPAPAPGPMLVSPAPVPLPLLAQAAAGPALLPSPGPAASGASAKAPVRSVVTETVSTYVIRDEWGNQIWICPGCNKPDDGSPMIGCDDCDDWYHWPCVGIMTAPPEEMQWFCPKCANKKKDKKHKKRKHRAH

Test [2] has as its target T2, TAF8 (human (endogenous in HeLa), UniProt Q7Z7C8 1-310).
T2 sequence (looked up): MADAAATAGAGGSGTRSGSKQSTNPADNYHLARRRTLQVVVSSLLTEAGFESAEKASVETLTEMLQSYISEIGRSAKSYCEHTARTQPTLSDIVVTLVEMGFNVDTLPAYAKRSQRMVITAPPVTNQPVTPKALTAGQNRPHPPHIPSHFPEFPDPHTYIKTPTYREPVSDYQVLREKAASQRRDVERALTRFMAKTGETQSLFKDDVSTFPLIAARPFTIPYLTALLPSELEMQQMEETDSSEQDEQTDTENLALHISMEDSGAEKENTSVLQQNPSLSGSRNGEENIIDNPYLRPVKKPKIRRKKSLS

Test [3] concerns the target TAF11 (human (endogenous in HeLa), UniProt Q15544 1-211).

Sequence of TAF11 (Q15544 whole entry): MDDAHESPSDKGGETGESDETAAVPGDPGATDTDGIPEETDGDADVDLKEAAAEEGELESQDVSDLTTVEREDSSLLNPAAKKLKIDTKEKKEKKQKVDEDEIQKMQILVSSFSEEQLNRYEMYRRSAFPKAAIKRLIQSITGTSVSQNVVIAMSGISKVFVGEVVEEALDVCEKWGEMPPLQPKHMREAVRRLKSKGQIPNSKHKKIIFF

B1: TAF10 (natural protein)
chain: not shown
As to B1, the binding result in test [1] and in test [2] was “binds” in each case.

B2: TAF13 (natural protein, human (endogenous in HeLa), UniProt Q15543 1-124, looked up)
chain: MADEEEDPTFEEENEEIGGGAEGGQGKRKRLFSKELRCMMYGFGDDQNPYTESVDILEDLVIEFITEMTHKAMSIGRQGRVQVEDIVFLIRKDPRKFARVKDLLTMNEELKRARKAFDEANYGS
Turning to B2, the binding result in test [3] is reported as “binds”.
